The labels stand for the following.
B1: Cytosolic beta-glucosidase, O61594 (parent)
chain: MKLLVVLSLVAVACNASIVRQQRRFPDDFLFGTATASYQIEGAWDEDGKGENIWDYMVHNTPEVIRDLSNGDIAADSYHNYKRDVEMMRELGLDAYRFSLSWARILPTGMANEVNPAGIAFYNNYIDEMLKYNITPLITLYHWDLPQKLQELGGFANPLISDWFEDYARVVFENFGDRVKMFITFNEPREICFEGYGSATKAPILNATAMGAYLCAKNLVTAHAKAYYLYDREFRPVQGGQCGITISVNWFGPATPTPEDEMAAELRRQGEWGIYAHPIFSAEGGFPKELSDKIAEKSAQQGYPWSRLPEFTEEEKAFVRGTSDLIGVNHYTAFLVSATERKGPYPVPSLLDDVDTGSWADDSWLKSASAWLTLAPNSIHTALTHLNNLYNKPVFYITENGWSTDESRENSLIDDDRIQYYRASMESLLNCLDDGINLKGYMAWSLMDNFEWMEGYIERFGLYEVDFSDPARTRTPRKAAFVYKHIIKHRVVDYEYEPETMVMTIDEGH

The series covers variants of B1. To be noted: Spodoptera frugiperda, pH 6, Thermal, Potassium phosphate 10mM, transition: 2, structure 5CG0, whole UniProt chain shown.
Setting [1] is: Differential Scanning Fluorimetry.

For Y420A, where the note is “CD”, the Tm was found to be 37 °C; the “change of melting temperature, mutant - wild type (higher = more stable)” value (“change of melting temperature, mutant” below) is -9 °C; the “ddG of mutation (higher = less stable)” value amounted to 1.42 kcal/mol; the “unfolding enthalpy (calorimetric)” value is 47.8 kcal/mol. Also, the unfolding free energy (CD) stood at 21.8 kcal/mol. For the same variant, under setting [1], the Tm is 37.2 °C and the “change of melting temperature, mutant” value is -7.8 °C.
On to L350A, for which, under “CD”, the Tm stood at 43.5 °C; the “change of melting temperature, mutant” value was -2.5 °C; the “ddG of mutation (higher = less stable)” value turned out to be 0.7 kcal/mol; the “unfolding enthalpy (calorimetric)” value stood at 61.4 kcal/mol. The unfolding free energy (CD) is 22.5 kcal/mol. Under setting [1], the Tm stood at 43.8 °C and the “change of melting temperature, mutant” value is -1.2 °C.
As to L335A, where the note is “CD”, the Tm worked out at 38.5 °C; the “change of melting temperature, mutant” value was -7.5 °C; the “ddG of mutation (higher = less stable)” value amounted to 0.84 kcal/mol; the “unfolding enthalpy (calorimetric)” value worked out at 55.2 kcal/mol. Besides, the unfolding free energy (CD) amounted to 22.4 kcal/mol. Moreover, under setting [1], the Tm was found to be 40 °C and the “change of melting temperature, mutant” value was -5 °C.
On to F334A, for which, under “CD”, the Tm worked out at 42.9 °C; the “change of melting temperature, mutant” value is -3.1 °C; the “ddG of mutation (higher = less stable)” value is 1.11 kcal/mol; the “unfolding enthalpy (calorimetric)” value amounted to 72.5 kcal/mol. For the same variant, the unfolding free energy (CD) was found to be 22.1 kcal/mol. Also, under setting [1], the Tm was 42.5 °C and the “change of melting temperature, mutant” value was -2.5 °C.
With K366A, under “CD”, the Tm worked out at 41.5 °C; the “change of melting temperature, mutant” value was -4.5 °C; the “ddG of mutation (higher = less stable)” value worked out at 1.25 kcal/mol; the “unfolding enthalpy (calorimetric)” value came to 74.6 kcal/mol. For the same variant, the unfolding free energy (CD) came out at 22 kcal/mol. Also, under setting [1], the Tm was 41 °C and the “change of melting temperature, mutant” value was -4 °C.
As for E261A, under setting [1], the Tm stood at 46.2 °C and the “change of melting temperature, mutant” value amounted to 1.2 °C.
The like results for S247A were, in that order, 45.3 °C and 0.3 °C.
With M262F, where the note is “CD”, the Tm turned out to be 45.7 °C; the “change of melting temperature, mutant” value was -0.3 °C; the “ddG of mutation (higher = less stable)” value is -0.53 kcal/mol; the “unfolding enthalpy (calorimetric)” value amounted to 91.7 kcal/mol. Further, the unfolding free energy (CD) worked out at 23.7 kcal/mol. Further, under setting [1], the Tm is 45 °C and the “change of melting temperature, mutant” value was determined as 0 °C.
For the variant L389A, where the note is “CD”, the Tm stood at 46.4 °C; the “change of melting temperature, mutant” value amounted to 0.4 °C; the “ddG of mutation (higher = less stable)” value is -0.67 kcal/mol; the “unfolding enthalpy (calorimetric)” value was determined as 81.1 kcal/mol. Moreover, the unfolding free energy (CD) came to 23.9 kcal/mol. Moreover, under setting [1], the Tm came out at 46.6 °C and the “change of melting temperature, mutant” value came out at 1.6 °C.
In the case of Y390A, for the setting “CD”, the Tm was 43 °C; the “change of melting temperature, mutant” value is -3 °C; the “ddG of mutation (higher = less stable)” value was found to be 0.34 kcal/mol; the “unfolding enthalpy (calorimetric)” value was 72.5 kcal/mol. In addition, the unfolding free energy (CD) came to 22.9 kcal/mol. Besides, under setting [1], the Tm is 45.1 °C and the “change of melting temperature, mutant” value is 0.1 °C.
As to N391A, for the setting “CD”, the Tm is 44.4 °C and the “change of melting temperature, mutant” value was -1.6 °C. Besides, under setting [1], the midpoint of thermal melting (Tm) was found to be 46 °C and the “change of melting temperature, mutant” value was 1 °C.
For the variant S337F, under setting [1], the Tm is 40.4 °C and the “change of melting temperature, mutant” value was -4.58 °C.
The matching figures for D260A: 40.8 °C and -4.2 °C.
Take V336F: where the note is “CD”, the Tm was 30 °C; the “change of melting temperature, mutant” value was -16 °C; the “ddG of mutation (higher = less stable)” value was 2.14 kcal/mol; the “unfolding enthalpy (calorimetric)” value stood at 51.6 kcal/mol. Moreover, the unfolding free energy (CD) was 21.1 kcal/mol. Moreover, under setting [1], the Tm was determined as 34 °C and the “change of melting temperature, mutant” value is -11 °C.
Take A263F: under “CD”, the midpoint of thermal melting (Tm) was determined as 39.6 °C; the “change of melting temperature, mutant” value is -6.4 °C; the “ddG of mutation (higher = less stable)” value stood at 0.43 kcal/mol; the “unfolding enthalpy (calorimetric)” value worked out at 44.2 kcal/mol. Where the note is “CD”, the unfolding free energy was found to be 22.8 kcal/mol. Under setting [1], the Tm turned out to be 40.6 °C and the “change of melting temperature, mutant” value is -4.4 °C.
In the case of F251A, under “CD”, the Tm is 42.2 °C; the “change of melting temperature, mutant” value was -3.8 °C; the “ddG of mutation (higher = less stable)” value amounted to 0.67 kcal/mol; the “unfolding enthalpy (calorimetric)” value came out at 52.3 kcal/mol. For the same variant, the unfolding free energy (CD) stood at 22.5 kcal/mol. Besides, under setting [1], the Tm was found to be 42.4 °C and the “change of melting temperature, mutant” value is -2.6 °C.
With E265A, for the setting “CD”, the melting temperature (Tm) was determined as 44.9 °C; the “change of melting temperature, mutant” value was -1.1 °C; the “ddG of mutation (higher = less stable)” value is -0.43 kcal/mol; the “unfolding enthalpy (calorimetric)” value turned out to be 51.1 kcal/mol. Moreover, the unfolding free energy (CD) turned out to be 23.6 kcal/mol. Further, under setting [1], the Tm is 44.9 °C and the “change of melting temperature, mutant” value is -0.1 °C.
Consider N249A, for which, for the setting “CD”, the Tm is 38.5 °C; the “change of melting temperature, mutant” value is -7.5 °C; the “ddG of mutation (higher = less stable)” value turned out to be 0.94 kcal/mol; the “unfolding enthalpy (calorimetric)” value came out at 48.2 kcal/mol. Moreover, the unfolding free energy (CD) was found to be 22.3 kcal/mol. Further, under setting [1], the Tm was found to be 39 °C and the “change of melting temperature, mutant” value is -6 °C.
Regarding S358A, under setting [1], the Tm is 42 °C and the “change of melting temperature, mutant” value was -3 °C.
In the case of L100A, where the note is “CD”, the Tm is 46.4 °C; the “change of melting temperature, mutant” value is 0.4 °C; the “ddG of mutation (higher = less stable)” value is -0.81 kcal/mol; the “unfolding enthalpy (calorimetric)” value was 53 kcal/mol. In addition, the unfolding free energy (CD) was 24 kcal/mol. Under setting [1], the Tm was 47.6 °C and the “change of melting temperature, mutant” value amounted to 2.6 °C.

The values above are taken from FireProtDB (doi:10.1111/febs.13659).
